Assay: yeast display, Sf9 membrane polyspecificity reagent, FACS + sequencing; frameworks hold sequencing errors
Outline: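 Sorting gates, low and high (top ~1%), were placed on anti-HA fluorescence to track expression and on streptavidin fluorescence to track reagent binding. A clone's polyreactivity label is taken from the gate it came out of. The reagent was 10% biotinylated, detergent-solubilized Sf9 membrane, applied for 1 hour at 4 °C to galactose-induced yeast display cells.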

Sequence	polyreactivity (PSR sort gate)
QVQLGESGGGLVQAGGSLRLSCAASGRTLSYYARGWYRHAPGKEREFVAAITGSGGSTYYADSVKGRFTISRDNAKNTVYLQMHSLQPADTAVYYCNAKGLGVFTVEYYYWGQGTQVTVSS	low polyreactivity
QVQLGESGGGLVQAGGSLRLSCAASGSIFAFNTMGWYRQAPGKERELVAAITWGGGSTYYADSVKGRFTISRDNAKNTVYLQMNSLKPEDTAVYYCAARRSGRTRYYWGQGTQVTVSS	high polyreactivity
QVQLGESGGGLVQAGGSLRLSCAASGSIFGHYAMGWYRQAPGKERELVAAISWSGTSTYYADSVKGRFTISRDNAKNTVYFQMNTLKPEDTAVYYCNVVYRVVSPSGGGYWGQGTQVTVSS	high polyreactivity
QVQLGESGGGLVQAGGSLRLSCAASGSIFRGYTMGWYRQAPGKERELVAGISFSGTRTYYADSVKGRFTISRDNAKNTVYLQMNSLKPEDTAVYYCAAVSPYGSQYGYWGQGTQVTVSS	high polyreactivity
QVQLGESGGGLVQAGGSLRLSCAASGSIFRYYVMGWYRQAPGKERELVATISRDSSRNYADSVKGRFTISRDNAKNTVYLQMNSLKPEDTAVYYCNTEGGVIRSYWYDYWGQGTQVTVSS	low polyreactivity
QVQLGESGGGLVQAGGSLRLSCAASGSILRSYAMGWYRQAPGKERELVAVINGSGDRTYYADSVKGRFTISRDTAKNTVYLQMNSLKPEDTAVYYCNVVRRSPGDYSYYYWGKGTQVTVSS	low polyreactivity
QVQLGESGGGLVQAGGSLRLSCAASGSIYVNAMGWYRQAPRKERELVAVISKSGGSTYYADSVKGRFTISRDNAKNTVYLQMNSLKPEETAVYYCAASRPSPGPRYGYWGQGTQVTVSS	high polyreactivity
QVQLGESGGGLVQAGGSLRLSCAASGSTFESYAMGWYRPAPGKEWELVAAINGGGRTYYADSVKGRFTISRDTAKNTVYLQMNSLNPEDTAVYYCAAEYRRGYYWPWGWEYYWGQGTQVTVSS	low polyreactivity
QVQLGESGGGLVQAGGSLRLSCAASGSTFHPHAMGWYRQAPGKERELVATIRRTGDSTYDADSVKGRFTISRDHAKNTVNLQMNSLKPEDTAVYYCAARYYAESYRYYYWGQGTQGTVSS	high polyreactivity
QVQLGESGGGLVQAGGSLRLSCAASGSTFNRYAMGWYIQAPGKERELVAAITVRGNTYYADSVKGRFTISRDNAKNTVDVQMNSVKPEDTAVYYCNAVSASPSYVYRPYFKRGYWGQGTQGTVSS	high polyreactivity
QVQLGESGGGLVQAGGSLRLSCAASGSTFNRYAMGWYRQAPGKERELVAAISFSGGRTYYADSVKGRFTISRDNAKNTVYLQMNSLKPEDSAVYYCTKVVYGYFTRAYTYNYWGQGTQVTVSS	high polyreactivity
QVQLGESGGGLVQAGGSLRLSCAASGSTFPFNAMGWYRQAPGKERELVAAITLRGGRTYYADSVKGRFTISRDNAKNTVYLQMNSMKPEDTAVYYCAARHNPYRYYHWGQGTQVTVSS	high polyreactivity
QVQLGESGGGLVQAGGSLRLSCAGTGIIFARYVMGWEREAPGQDRELVAAIRRSGHSTYADSVKGRFTISRYNATNTLYLHMNSLKPEETAVYYCNAKGWISGRYSPYYRFDYWGQGTQVTVSS	high polyreactivity
QVQLGESGGGLVQAGGSLRLSCAPSGSIFGYYSMGWYRQAPGKERELVATITLSDDSTYYAVSVKGRFTISRDNAKITVYLQMNSLKPEDTAVYYCAAVRITRYQWDRSVGSGDYWGQGTQVTVSS	high polyreactivity
QVQLGESGGGLVQAGGSLRLSFAASGRISKRNDRGWSRQAPGKERELVAGITSTGSTSYAHSVKGRFTISRDNAKKTVYLQMNSLKPEDTAVYYCAARGQATYNWGQGTQVTVSS	high polyreactivity
QVQLGESGGGLVQAGGSVRLSCAASGRTFDFYALGWYRQAPGKERELVAAISSRGGSTYYADSVKGRFTISRDNAKNTVYLQMNSLKPEDTAVYYGAKDLGYRGRYNYWGQGTQVTVSS	low polyreactivity
QVQLGESVGGLVQAGGSLRLSCAASGFTSRKNAMGWYRQAPGKERELVAAITQSSGRTYYADSVKGRFTISRVNAKNTVYLQMNRLKPEDTAVYYCAARRGGEDDYWGQGTQVTVSS	low polyreactivity
QVQLHESGGGLVLAGGSLRLSCSASGNISVYGSMGLYRQAPGKEREFVATIDPGTNTNYADSVKDRFSISRDNAKHTVYLQMNSLKPEDTAVYYCAVEAGSDWPYRYWGHGTQVTVSS	low polyreactivity
QVQLHESGGGLVQAGGSLRLGCAPSGNISHAAYMGWYRQAPGKEREFVAAIAAGSNPNYADSVKGRFTISRDNAKNTVYLQMNSLKPEDTAVFYCAVASYARVQYEYWGQGTQVTVNS	low polyreactivity
QVQLHESGGGLVQAGGSLRLSCAASGTISVTYNMAWYRQAPGKERECVAGNSTGATTNYADSVKGRFTIRRDNAKNTVYLQMNSLKPEDTAVYYCAAHIYRQDHFYYWGQGTQVTVSS	low polyreactivity
QVQLHESGGGLVQAGGSLRLSCAASGTISYAGPRGWYRQAPGKERECVAGIGVGSNTNYADSVKGRYTIIRDNAKNTVYLQMNILKPEVTAVYYCAVGGYAPLGRPYWGQGTQVTVSS	low polyreactivity
QVQLHESGGGLVQEGGSQRLSCAASGNIFYTYAMRWYRHAPGKEREFDATINHGTSINYADSVKGRFTISRDNAKNTVYLQMNSLKPEDTAVYYCAADLSWTDNLFYWGQGTQVTVSS	low polyreactivity

Sequence	polyreactivity (PSR sort gate)
QVQLHQSGGGLVQAGGTLRLSCAPSGNISVTYNMGWYRQAPGKEREFVAGNSTGATTNYADSVTGRFTISRDNAKNSVYLQMNSLKPEDTAVYYCAAHIYRQDHFYYWGQGTQVTVSS	low polyreactivity
QVQLIESGGGLVQAGGSLRLSCAASGRTFYVNAMGWYRQAPGKERELVAAIRSGGSTSYADSVKGRFTISRDNAKNTVYLQMNSLKPEDTAVYYCAAKSGLDLYYGLGGYWGQGTQVTVSS	high polyreactivity
QVQLIESGGGLVQAGGSLRLSCAASGSIFAANAMGWYRQAPGKEREFVASISYTGASTYADSVKGRFTISRDNAKNTVYLQMKSLKPEDTAVYYCAKDGYWTGLDPYYYWGQGTQVTVSS	low polyreactivity
QVQLIESGGGLVQAGGSLRLSCAASGSIFQYTMGWYRQAPGKERELVAAITRSGSSTYYADSVKGRFTISRDNAKNTVYLQMNSLKPEDTAVYYCAHTIRRVLGYGSWGQGTQVTVSS	high polyreactivity
QVQLKESCGGLVQAGGSLRLSCAASGTITYAPHKGWYRQAPGKERELVAGITIGGTTYYADSVKGRFTISRDNAKNTVYLQMNSLSPGDTAVYYCAAHSEQYTPFYYWGQGTQVTVSS	low polyreactivity
QVQLLDSGGGLVQAGGSLRLSCAASGSIFYLNAMGWYRQAPVKEREFVAAITLRGGSSYYADSVKGRFTISRDYANNTFYLQMKSLKPEDTAFYYCNAGVALTYVHDGDYWGQGTQVTVSS	low polyreactivity
QVQLLESCGGLVQAGGSLRLSCAASGRIFSYYVMGWYRQAPGKERELVAAITSGGSTNYADSVKGRFTISRDNAKISVYLQLTSLKPVDTAVYYFNRAYTYINRLYGYWGQGTEVTVSS	high polyreactivity
QVQLLESGGGIVQAGGSLRLSCAASGRTFYVYGMGWYRQAPGKERELVAAISKRGDNTYYADAVKGRFTISRDNAKNTVYLQMNSLKPEDTAVYYCNVKLYGGRSDYWGQGTQVTVSS	high polyreactivity
QVQLLESGGGLDQAGGSLRLSTAASGSTFGVYAMGWYRQARGKEREMVAAISRRGGSTYYADSVKGRFTISRDNAKNTVYLQMNSLKPEDTAVYYCAARGGQMEYWGQGTQVTVSS	high polyreactivity
QVQLLESGGGLFQTGGSLRLSCAASGRTFWNYAKGWYRQAPGKERELVAVIRFSDGSTYYADSVKGRFTISRDNAKNTVYLQMNSLKPQDTAVYYSAAKGPRRWGSGFDYWGQGTQVTVSS	low polyreactivity
QVQLLESGGGLLQAGGSLRLSCAASGRIFKFNAMGWYRQAPGKERELVAAISKRGGSTYYADSVKGRFTISRDNAKNTVYLQMNSLNPEDTAVYYCAAPIYNGYASWQVYYWGQGTQVTVSS	high polyreactivity
QVQLLESGGGLVKAGGSLRLTCADSGRTLYRYAMGWYRQAPGKERELVAAINQSGGRTYYADSVKGRFTISRDNAKNTVYLQMNSLKPDDTAVYYCNTASSRAFLTHGRYGRSDYWGQGTQVTVSS	high polyreactivity
QVQLLESGGGLVPARGSLRLSCAASGRIFPQYVMGWYRQAPGKEREFVATISYSGGRTYYADSVKGRFTISRDNAMNTVYVQMNSLKPEDTAVYDCAAGTSAGWADDYWGQGTQVTVSS	high polyreactivity
QVQLLESGGGLVQAGGILRLSCAASGRTLHYSAMGWYRQAPGIERELVAAISARGGRTYYADSVKGRFTISRDNAKNTVYLLMQTLKPEDTAVYYCAAAGYITRYDRYDYWGQGTHVTVSS	high polyreactivity
QVQLLESGGGLVQAGGSLRLSCAASASTFWFYAMGWYIQAPGKERELVAAISSTGSTNYADSVKGRFTISRDNAKNTVYLQMNSLKPEDTAVYYCATQEGPHKLDPRGYYWGQGTQVTVSS	low polyreactivity
QVQLLESGGGLVQAGGSLRLSCAASGGTFRVYAMGWYRQAPVKEWELVAAISSGGSTNYADSVKGRFTISRDNAKNTVYLQMNSLIPEDTAVSYCNAKYRYRFARSPIYFYWGQGTQVTVSS	low polyreactivity
QVQLLESGGGLVQAGGSLRLSCAASGITFPYYAMGWYRQAPGKERELVAAISSSGGSTYYADSVKGRFTISRDIAKNTVYLQMNSLKPEDTAVYYCAAQRYINYDYWGQGTQVTVSS	high polyreactivity
QVQLLESGGGLVQAGGSLRLSCAASGLIFAGNAMGWYRQAPGKERELVAAISSSGGRTYYADSVKGRFTFSRDNAKNTVYLQMYSLKPEDTAVYYCAAVRTGYYRQYDYWGQGTQVTVSS	high polyreactivity
QVQLLESGGGLVQAGGSLRLSCAASGLIFKYYAMGWYRQAPGKERELVAVITSSGGSTYYADSVKGRFTISRDNANNTVYLQMNSLKPEDTAVYYCAARRVRWPYDYWGQGTQVTVSS	high polyreactivity
QVQLLESGGGLVQAGGSLRLSCAASGLIYVNNPMGWYRKATGKETELVATISSGVSTNYADSVKGRFTISRENAKNSVYLHMNSLKPEDTAVYYCNKGQTVSRGYRLYERYDYWGQGTQVTVSS	low polyreactivity
QVQLLESGGGLVQAGGSLRLSCAASGLTFGWYAMGWYRQAPGKERELVAAITWNSGSTYYADSVKGRFTISRDNAKNTVYLQMNSLKPVDTAVYYCAAGYQDSQEYDYWGQGTQVTVSS	low polyreactivity
